Test results: patent publication US20180356429A1

What was measured:
[1] = biological target: Recombinant human IL-13 (R&D Systems, MN, catalog no. 213-ILB/CF) (human) (UniProt P35225); assay: sandwich pair screen, negative (blank) signal, binder is detection Ab; capture Ab 4D7
[2] = biological target: Recombinant human IL-13 (R&D Systems, MN, catalog no. 213-ILB/CF) (human) (UniProt P35225); assay: sandwich pair screen, negative (blank) signal, binder is detection Ab; capture Ab 11H4
[3] = biological target: Recombinant human IL-13 (R&D Systems, MN, catalog no. 213-ILB/CF) (human) (UniProt P35225); assay: sandwich pair screen, negative (blank) signal, binder is detection Ab; capture Ab 14C9
[4] = biological target: Recombinant human IL-13 (R&D Systems, MN, catalog no. 213-ILB/CF) (human) (UniProt P35225); assay: sandwich pair screen, negative (blank) signal, binder is detection Ab; capture Ab 8C11
[5] = biological target: Recombinant human IL-13 (R&D Systems, MN, catalog no. 213-ILB/CF) (human) (UniProt P35225); assay: sandwich pair screen, negative (blank) signal, binder is detection Ab; capture Ab 32116
[6] = biological target: Recombinant human IL-13 (R&D Systems, MN, catalog no. 213-ILB/CF) (human) (UniProt P35225); assay: sandwich pair screen, negative (blank) signal, binder is detection Ab; capture Ab 228B/C
[7] = biological target: Recombinant human IL-13 (R&D Systems, MN, catalog no. 213-ILB/CF) (human) (UniProt P35225); assay: sandwich pair screen, 100 pg/mL recombinant IL-13, binder is detection Ab; capture Ab 4D7
[8] = biological target: Recombinant human IL-13 (R&D Systems, MN, catalog no. 213-ILB/CF) (human) (UniProt P35225); assay: sandwich pair screen, 100 pg/mL recombinant IL-13, binder is detection Ab; capture Ab 11H4
[9] = biological target: Recombinant human IL-13 (R&D Systems, MN, catalog no. 213-ILB/CF) (human) (UniProt P35225); assay: sandwich pair screen, 100 pg/mL recombinant IL-13, binder is detection Ab; capture Ab 14C9
[10] = biological target: Recombinant human IL-13 (R&D Systems, MN, catalog no. 213-ILB/CF) (human) (UniProt P35225); assay: sandwich pair screen, 100 pg/mL recombinant IL-13, binder is detection Ab; capture Ab 8C11
[11] = biological target: Recombinant human IL-13 (R&D Systems, MN, catalog no. 213-ILB/CF) (human) (UniProt P35225); assay: sandwich pair screen, 100 pg/mL recombinant IL-13, binder is detection Ab; capture Ab 32116
[12] = biological target: Recombinant human IL-13 (R&D Systems, MN, catalog no. 213-ILB/CF) (human) (UniProt P35225); assay: sandwich pair screen, negative (blank) signal, binder is detection Ab; capture Ab MILR1444A
[13] = biological target: Recombinant human IL-13 (R&D Systems, MN, catalog no. 213-ILB/CF) (human) (UniProt P35225); assay: sandwich pair screen, 100 pg/mL recombinant IL-13, binder is detection Ab; capture Ab 228B/C
[14] = biological target: Recombinant human IL-13 (R&D Systems, MN, catalog no. 213-ILB/CF) (human) (UniProt P35225); assay: sandwich pair screen, 100 pg/mL recombinant IL-13, binder is detection Ab; capture Ab MILR1444A

Recombinant human IL-13 (R&D Systems, MN, catalog no. 213-ILB/CF) (human), sequence (P35225 other isoform, or with tags, fused parts or gaps): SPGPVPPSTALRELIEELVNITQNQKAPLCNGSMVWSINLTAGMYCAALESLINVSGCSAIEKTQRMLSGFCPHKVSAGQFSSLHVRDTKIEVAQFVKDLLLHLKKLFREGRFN

B1: 228B/C (antibody, from a related filing, V domains shown)
VH: QVQLQESGPGLVAPSQSLSITCTVSGFSLNAYSVNWVRQPPGKGLEWLGMIWGDGKIVYNSALKSRLNISKDSSKSQVFLKMSSLQSDDTARYYCAGDGYYPYAMDNWGHGTSVTVSS
VL: NIVLTQSPASLAVSLGQRATISCRASKSVDSYGNSFMHWYQQKPGQPPKLLIYLASNLESGVPARFSGSGSRTDFTLTIDPVEADDAASYYCQQNNEDPRTFGGGTKLEIK
- Assay Signal Neg (blank) [1]: 24.7
- Assay Signal Neg (blank) [2]: 22.4
- Assay Signal Neg (blank) [3]: 29
- Assay Signal Neg (blank) [4]: 3.9
- Assay Signal Neg (blank) [5]: 15.2
- Assay Signal Neg (blank) [6]: 26.6
- Assay Signal Pos [7]: 29.9
- Assay Signal Pos [8]: 9540
- Assay Signal Pos [9]: 70.3
- Assay Signal Pos [10]: 25.4
- Assay Signal Pos [11]: 126
- Assay Signal Neg (blank) [12]: 5.4
- Assay Signal Pos [13]: 27.7
- Assay Signal Pos [14]: 6
